Patent US20120316071A1 (published 2012)

B1: Fab VH5-51_IGHD5-18*01>3_IGHJ4*01 G100K/G104T G24T/S28R/G35V (H:KT TRV) & V3-4_IGLJ1*01 V91L/S96P S57P (Fab, V domains shown)
VH: EVQLVQSGAEVKKPGESLKISCKTSGYRFTSYWIVWVRQMPGKGLEWMGIIYPGDSDTRYSPSFQGQVTISADKSISTAYLQWSSLKASDTAMYYCARRKYSYTYDYFDYWGQGTLVTVSS
VL: QTVVTQEPSFSVSPGGTVTLTCGLSSGSVSTSYYPSWYQQTPGQAPRTLIYSTNTRPSGVPDRFSGSILGNKAALTITGAQADDESDYYCLLYMGPGISYVFGTGTKVTVL
notes: Fab made in E. coli: VH in plasmid A (CH1, His6 and Flag tags), VL in plasmid E (lambda CL); also called H:KT TRV & L:LP S57P
B2: Fab VH5-51_IGHD5-18*01>3_IGHJ4*01 G100K/G104T G24T/S28R/G35V (H:KT TRV) & V3-4_IGLJ1*01 V91L/S96P S57Q (Fab, V domains shown)
VH: EVQLVQSGAEVKKPGESLKISCKTSGYRFTSYWIVWVRQMPGKGLEWMGIIYPGDSDTRYSPSFQGQVTISADKSISTAYLQWSSLKASDTAMYYCARRKYSYTYDYFDYWGQGTLVTVSS
VL: QTVVTQEPSFSVSPGGTVTLTCGLSSGSVSTSYYPSWYQQTPGQAPRTLIYSTNTRQSGVPDRFSGSILGNKAALTITGAQADDESDYYCLLYMGPGISYVFGTGTKVTVL
notes: Fab made in E. coli: VH in plasmid A (CH1, His6 and Flag tags), VL in plasmid E (lambda CL); also called H:KT TRV & L:LP S57Q
B3: Fab VH5-51_IGHD5-18*01>3_IGHJ4*01 G100K/G104T G24T/S28R/G35V (H:KT TRV) & V3-4_IGLJ1*01 V91L/S96P S57R (Fab, V domains shown)
VH: EVQLVQSGAEVKKPGESLKISCKTSGYRFTSYWIVWVRQMPGKGLEWMGIIYPGDSDTRYSPSFQGQVTISADKSISTAYLQWSSLKASDTAMYYCARRKYSYTYDYFDYWGQGTLVTVSS
VL: QTVVTQEPSFSVSPGGTVTLTCGLSSGSVSTSYYPSWYQQTPGQAPRTLIYSTNTRRSGVPDRFSGSILGNKAALTITGAQADDESDYYCLLYMGPGISYVFGTGTKVTVL
notes: Fab made in E. coli: VH in plasmid A (CH1, His6 and Flag tags), VL in plasmid E (lambda CL); also called H:KT TRV & L:LP S57R
B4: Fab VH5-51_IGHD5-18*01>3_IGHJ4*01 G100K/G104T G24T/S28R/G35V (H:KT TRV) & V3-4_IGLJ1*01 V91L/S96P S57T (Fab, V domains shown)
VH: EVQLVQSGAEVKKPGESLKISCKTSGYRFTSYWIVWVRQMPGKGLEWMGIIYPGDSDTRYSPSFQGQVTISADKSISTAYLQWSSLKASDTAMYYCARRKYSYTYDYFDYWGQGTLVTVSS
VL: QTVVTQEPSFSVSPGGTVTLTCGLSSGSVSTSYYPSWYQQTPGQAPRTLIYSTNTRTSGVPDRFSGSILGNKAALTITGAQADDESDYYCLLYMGPGISYVFGTGTKVTVL
notes: Fab made in E. coli: VH in plasmid A (CH1, His6 and Flag tags), VL in plasmid E (lambda CL); also called H:KT TRV & L:LP S57T
B5: Fab VH5-51_IGHD5-18*01>3_IGHJ4*01 G100K/G104T G24T/S28R/G35V (H:KT TRV) & V3-4_IGLJ1*01 V91L/S96P S57V (Fab, V domains shown)
VH: EVQLVQSGAEVKKPGESLKISCKTSGYRFTSYWIVWVRQMPGKGLEWMGIIYPGDSDTRYSPSFQGQVTISADKSISTAYLQWSSLKASDTAMYYCARRKYSYTYDYFDYWGQGTLVTVSS
VL: QTVVTQEPSFSVSPGGTVTLTCGLSSGSVSTSYYPSWYQQTPGQAPRTLIYSTNTRVSGVPDRFSGSILGNKAALTITGAQADDESDYYCLLYMGPGISYVFGTGTKVTVL
notes: Fab made in E. coli: VH in plasmid A (CH1, His6 and Flag tags), VL in plasmid E (lambda CL); also called H:KT TRV & L:LP S57V
B6: Fab VH5-51_IGHD5-18*01>3_IGHJ4*01 G100K/G104T G24T/S28R/G35V (H:KT TRV) & V3-4_IGLJ1*01 V91L/S96P S57W (Fab, V domains shown)
VH: EVQLVQSGAEVKKPGESLKISCKTSGYRFTSYWIVWVRQMPGKGLEWMGIIYPGDSDTRYSPSFQGQVTISADKSISTAYLQWSSLKASDTAMYYCARRKYSYTYDYFDYWGQGTLVTVSS
VL: QTVVTQEPSFSVSPGGTVTLTCGLSSGSVSTSYYPSWYQQTPGQAPRTLIYSTNTRWSGVPDRFSGSILGNKAALTITGAQADDESDYYCLLYMGPGISYVFGTGTKVTVL
notes: Fab made in E. coli: VH in plasmid A (CH1, His6 and Flag tags), VL in plasmid E (lambda CL); also called H:KT TRV & L:LP S57W
B7: Fab VH5-51_IGHD5-18*01>3_IGHJ4*01 G100K/G104T G24T/S28R/G35V (H:KT TRV) & V3-4_IGLJ1*01 V91L/S96P S57Y (Fab, V domains shown)
VH: EVQLVQSGAEVKKPGESLKISCKTSGYRFTSYWIVWVRQMPGKGLEWMGIIYPGDSDTRYSPSFQGQVTISADKSISTAYLQWSSLKASDTAMYYCARRKYSYTYDYFDYWGQGTLVTVSS
VL: QTVVTQEPSFSVSPGGTVTLTCGLSSGSVSTSYYPSWYQQTPGQAPRTLIYSTNTRYSGVPDRFSGSILGNKAALTITGAQADDESDYYCLLYMGPGISYVFGTGTKVTVL
notes: Fab made in E. coli: VH in plasmid A (CH1, His6 and Flag tags), VL in plasmid E (lambda CL); also called H:KT TRV & L:LP S57Y
B8: Fab VH5-51_IGHD5-18*01>3_IGHJ4*01 G100K/G104T G24T/S28R/G35V (H:KT TRV) & V3-4_IGLJ1*01 V91L/S96P T53G (Fab, V domains shown)
VH: EVQLVQSGAEVKKPGESLKISCKTSGYRFTSYWIVWVRQMPGKGLEWMGIIYPGDSDTRYSPSFQGQVTISADKSISTAYLQWSSLKASDTAMYYCARRKYSYTYDYFDYWGQGTLVTVSS
VL: QTVVTQEPSFSVSPGGTVTLTCGLSSGSVSTSYYPSWYQQTPGQAPRTLIYSGNTRSSGVPDRFSGSILGNKAALTITGAQADDESDYYCLLYMGPGISYVFGTGTKVTVL
notes: Fab made in E. coli: VH in plasmid A (CH1, His6 and Flag tags), VL in plasmid E (lambda CL); also called H:KT TRV & L:LP T53G
B9: Fab VH5-51_IGHD5-18*01>3_IGHJ4*01 G100K/G104T G24T/S28R/G35V (H:KT TRV) & V3-4_IGLJ1*01 V91L/S96P T53R (Fab, V domains shown)
VH: EVQLVQSGAEVKKPGESLKISCKTSGYRFTSYWIVWVRQMPGKGLEWMGIIYPGDSDTRYSPSFQGQVTISADKSISTAYLQWSSLKASDTAMYYCARRKYSYTYDYFDYWGQGTLVTVSS
VL: QTVVTQEPSFSVSPGGTVTLTCGLSSGSVSTSYYPSWYQQTPGQAPRTLIYSRNTRSSGVPDRFSGSILGNKAALTITGAQADDESDYYCLLYMGPGISYVFGTGTKVTVL
notes: Fab made in E. coli: VH in plasmid A (CH1, His6 and Flag tags), VL in plasmid E (lambda CL); also called H:KT TRV & L:LP T53R
B10: Fab VH5-51_IGHD5-18*01>3_IGHJ4*01 G100K/G104T G24T/S28R/G35V (H:KT TRV) & V3-4_IGLJ1*01 V91L/S96P T53W (Fab, V domains shown)
VH: EVQLVQSGAEVKKPGESLKISCKTSGYRFTSYWIVWVRQMPGKGLEWMGIIYPGDSDTRYSPSFQGQVTISADKSISTAYLQWSSLKASDTAMYYCARRKYSYTYDYFDYWGQGTLVTVSS
VL: QTVVTQEPSFSVSPGGTVTLTCGLSSGSVSTSYYPSWYQQTPGQAPRTLIYSWNTRSSGVPDRFSGSILGNKAALTITGAQADDESDYYCLLYMGPGISYVFGTGTKVTVL
notes: Fab made in E. coli: VH in plasmid A (CH1, His6 and Flag tags), VL in plasmid E (lambda CL); also called H:KT TRV & L:LP T53W

What follows are binders tested against T1, Recombinant Human DLL4 (delta-like protein 4) (human, UniProt Q9NR61 27-524) (assay: ELISA, DLL4 coated on plate, 100 nM Fab).
T1 construct: Bought recombinant human DLL4 (R&D Systems Cat#1506-D4/CF) coated on the ELISA plate; also called rHuman DLL4; Delta-like ligand 4

Compared with B1, B2 is lower in “ELISA Signal-blank (100 nM Fab)” value: 0.36 for the first, 0.21 for the second.

Compared with B3, B4 is higher in “ELISA Signal-blank (100 nM Fab)” value: 0.18 for the first, 0.3 for the second.

Going from B5 to B6, the “ELISA Signal-blank (100 nM Fab)” value falls from 0.34 to 0.12.

Compared with B7, B8 is lower in “ELISA Signal-blank (100 nM Fab)” value: 0.28 for the first, 0.08 for the second.

Compared with B9, B10 is higher in “ELISA Signal-blank (100 nM Fab)” value: 0.05 for the first, 0.06 for the second.
